These results are taken from patent US10736988B2, “Bone substitute nanocomposites and methods of synthesis using multiphosphorylated peptides” (UNIVERSITY OF PITTSBURGH—OF THE COMMONWEALTH SYSTEM OF …, priority 2012, dated 2020).

The target of assay [1] is T1, Casein Kinase 2 (CK2) (Homo sapiens, UniProt P68400).
T1 construct: purchased Millipore Inc. 14-197
Kind of assay: In vitro phosphorylation of peptide by CK2 (32P scintillation / autoradiography). The assay is classed as biochemical. The note with it: for average number of phosphates per peptide: SD in parenthesis. The text has this:
(§1) R-SSD3 indicated by SEQ NO. […] ATP was used for the scintillation counter experiments.

Assay [2] concerns CK1 and CK2. Kind of assay: In vitro phosphorylation of peptide by CK1 and CK2 combined (32P scintillation). The assay is classed as biochemical. The following applies: for average number of phosphates per peptide: SD in parenthesis.
Excerpt: as §1

Assay [3] deals with mixture of CK1 and CK2. Kind of assay: Mass spectrometry identification of phosphates incorporated by a mixture of CK1 and CK2. In kind it is biochemical. The note with it: MS, one hour. Here is the method: For mass spectrometry (MS) analysis, the reaction was performed as above, however, radiolabeled ATP was not used and the reaction mixture was transferred into a Tube-O-DIALYZER with a MWCO of 1000 and dialyzed overnight.
For MALDI-TOF-MS analysis, the peptides and CHCA matrix (α-cyano-4-hydroxycinnamic acid, 10 μg/μl, in 50% acetonitrile containing 0.1% trifluoroacetic acid) solutions were premixed in a small Eppendorf tube, spun down and remixed three times, then applied directly to the sample plate. Once applied to the target, the sample was allowed to air dry. The samples were analyzed using an Applied Biosystems (Foster City, Calif.) Voyager DE Pro or 4700 Proteomics Analyzer TOF/TOF instrument. The samples were also analyzed by LC-MS/MS on a ThermoFischer (Waltham, Mass.) Surveyor LC System coupled to a ThermoFischer LCQ Deca XP Plus mass spectrometer equipped with a nanospray ion source and also a ThermoFischer LTQ-XL instrument. The LC System contained a sample trap followed by a C18 column (BioBasic C18 PicoFrit column, 10 cm×75 μM, New Objective, Inc., Woburn, Mass.). […]
Upon elution of the C18 column, the analyte was ionized by nano-capillary ESI. […] The MS/MS spectra were analyzed with BioWorks 3.2 Browser with the Sequest search engine. […]

Assay [4] deals with Casein Kinase 1 (CK1). The following applies: for average number of phosphates per peptide: SD in parenthesis. How it is done: R-SSD3 indicated by SEQ NO. 2 was phosphorylated in vitro by CK1, CK2 or a mixture of both kinases. ATP was used as a source of phosphate; and [γ-^32P] ATP was used for the scintillation counter experiments. The standard assay mixture consisted of 50 mM Tris-HCl, pH 7.4, 5 mM MgCl2, 1 mM EGTA and 10 mM β-glycerophosphate. […] The samples were vortexed and kept for 20 minutes at room temperature before transferring into a water bath at 30° C. The reaction was started by adding 10 μl of ATP (cold Mg-ATP and 1 μCi of [γ-^32P] ATP) and the reaction mixture was incubated at 30° C. in a shaker for 1 hr. To assess the kinetics of the reactions, phosphorylation was allowed to proceed for 20 minutes, 1 hour, 4 hours and 24 hours before the reaction was stopped. The reaction was terminated by adding 40 μl of loading Tricine sample buffer (200 mM Tris-HCl, pH 6.8, 2% SDS, 40% glycerol, 0.04% Coomassie G-250 dye). The samples were then boiled in a water bath for five minutes and subjected to electrophoresis on 16.5% Tris-Tricine gel run using Tris-Tricine/SDS buffer (containing 100 mM Tris, 100 mM Tricine, 0.1% SDS, pH 8.3) at 100V for 1.5 hours.
In vitro phosphorylation assay was performed according to conventional procedure. 25 ul reactions containing 1 μg of R-SSD3 peptide indicated by SEQ NO. 2, in the presence and absence of 300 ng of either CK1 or CK2 or both containing 10 μCi ^32P γ [ATP]. The reactions were performed in triplicate at 30° C. for 1 hour, 4 hours and 24 hours using one batch of radiolabeled ATP and enzymes from a single lot.
The reaction products were purified using SDS-PAGE, visualized by autoradiography, and band intensities were quantified using a Kodak 1D 3.6 imaging system. After autoradiography, the gel was overlaid on the autoradiogram, the individual protein bands were excised and ^32P incorporation was determined using a liquid scintillation counter (Beckman LS6500 system). To calculate the number of moles of phosphates transferred to 1 ug of peptide ([…]) in the kinase reaction, the mean counts per minute obtained in the kinase reactions from triplicates (minus blank) are divided by the specific activity of the ^32Pγ[ATP] in the kinase assay, as follows.

Assay [5] concerns the target T2, type I collagen fibrils (Rattus norvegicus, UniProt P02454+P02466).
T2 construct: from an acidic rat tail collagen solution; from tissue; host or cells: rat tail
Kind of assay: On-grid mineralization of reconstituted collagen fibrils (TEM/SAED). Here is the method: Mineralization experiments were carried out using a modification of an “on grid” mineralization setup developed in a lab and published in the art. The type I collagen fibrils were reconstituted on carbon-coated Cu grids, mesh #400 (EMS, Hatfield, Pa.) from an acidic rat tail collagen solution. Concentrated 10×PBS (mono- and disodium phosphate totaling 40 mM and 1.5 M NaCl), phosphorylated with CK2 and nonphosphorylated protein stock solution, […] to obtain 4 mM PBS, 1.67 mM Ca and 15 μg/ml peptide. Prior to the experiments, the pH of concentrated 10×PBS was adjusted such that upon mixing, the pH of the final mineralization solution was 7.8. The TEM grids coated with reconstituted collagen fibrils were floated on 50 μL droplets of the mineralization solution at 100% humidity for 16 hours at 37° C.
TEM and selected area electron diffraction (SAED) studies were conducted using JEOL 1210 operated at 100 kV. The micrographs were recorded using an AMT CCD camera (AMT, Danvers, Mass.). An aluminum-coated TEM grid (EMS Hatfield, Pa.) was used as a standard for the calibration of SAED patterns for d-spacing calculations. The micrographs were analyzed using an ImageJ 1.38 software package (Bethesda, Md.).

Several values for one entry are separate records, joined by “and”; a condition that tells them apart may be missing. Identical values can stand only once. Like-named read-outs stand apart in the source and are kept apart here.

T1 sequence (P68400 whole entry): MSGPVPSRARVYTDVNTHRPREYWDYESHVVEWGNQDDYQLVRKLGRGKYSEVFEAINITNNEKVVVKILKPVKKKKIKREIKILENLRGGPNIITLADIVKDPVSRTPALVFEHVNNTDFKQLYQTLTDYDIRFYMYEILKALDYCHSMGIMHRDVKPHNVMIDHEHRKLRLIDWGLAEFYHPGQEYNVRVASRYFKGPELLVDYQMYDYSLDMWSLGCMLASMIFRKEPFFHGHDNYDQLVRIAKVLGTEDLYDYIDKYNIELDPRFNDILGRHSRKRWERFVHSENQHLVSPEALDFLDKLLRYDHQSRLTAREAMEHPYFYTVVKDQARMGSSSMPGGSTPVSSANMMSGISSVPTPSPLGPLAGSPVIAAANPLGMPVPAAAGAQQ
T1 sequence (P67870 whole entry partner): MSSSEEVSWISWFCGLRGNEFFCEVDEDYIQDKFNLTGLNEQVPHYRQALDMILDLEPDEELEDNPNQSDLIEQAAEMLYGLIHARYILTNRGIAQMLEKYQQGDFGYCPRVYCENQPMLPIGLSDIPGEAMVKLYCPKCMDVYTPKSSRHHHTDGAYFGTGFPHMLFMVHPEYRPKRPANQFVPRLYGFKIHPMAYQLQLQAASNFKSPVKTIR
T2 sequence (P02454 152-1207 limits assumed): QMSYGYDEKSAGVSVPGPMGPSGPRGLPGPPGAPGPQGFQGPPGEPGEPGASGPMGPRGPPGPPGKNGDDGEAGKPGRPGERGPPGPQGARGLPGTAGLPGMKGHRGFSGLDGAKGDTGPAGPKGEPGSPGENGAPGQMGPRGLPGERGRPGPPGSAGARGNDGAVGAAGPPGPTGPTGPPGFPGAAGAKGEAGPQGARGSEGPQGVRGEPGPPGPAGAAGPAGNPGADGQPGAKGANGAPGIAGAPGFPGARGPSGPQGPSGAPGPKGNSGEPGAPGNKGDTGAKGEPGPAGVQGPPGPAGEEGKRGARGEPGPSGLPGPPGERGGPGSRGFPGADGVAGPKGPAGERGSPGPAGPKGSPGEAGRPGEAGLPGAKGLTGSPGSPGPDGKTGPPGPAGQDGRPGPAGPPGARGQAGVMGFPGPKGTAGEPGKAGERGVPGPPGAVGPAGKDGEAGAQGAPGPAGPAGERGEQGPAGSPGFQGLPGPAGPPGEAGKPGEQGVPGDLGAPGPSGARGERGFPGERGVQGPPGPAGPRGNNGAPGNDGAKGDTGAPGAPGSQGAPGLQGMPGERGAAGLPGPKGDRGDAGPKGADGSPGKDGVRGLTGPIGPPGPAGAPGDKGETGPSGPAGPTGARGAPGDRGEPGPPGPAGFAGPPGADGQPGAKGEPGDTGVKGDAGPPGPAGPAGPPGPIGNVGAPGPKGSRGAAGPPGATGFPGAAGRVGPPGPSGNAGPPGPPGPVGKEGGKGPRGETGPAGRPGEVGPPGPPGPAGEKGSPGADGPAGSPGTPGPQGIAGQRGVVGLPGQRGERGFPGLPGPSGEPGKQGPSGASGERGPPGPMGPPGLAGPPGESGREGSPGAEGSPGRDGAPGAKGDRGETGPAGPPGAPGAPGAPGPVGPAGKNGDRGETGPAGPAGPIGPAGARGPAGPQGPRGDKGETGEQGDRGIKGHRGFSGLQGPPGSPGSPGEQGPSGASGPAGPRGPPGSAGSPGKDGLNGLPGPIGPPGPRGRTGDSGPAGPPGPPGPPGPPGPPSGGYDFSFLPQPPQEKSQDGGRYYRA
T2 sequence (P02466 86-1125 limits assumed): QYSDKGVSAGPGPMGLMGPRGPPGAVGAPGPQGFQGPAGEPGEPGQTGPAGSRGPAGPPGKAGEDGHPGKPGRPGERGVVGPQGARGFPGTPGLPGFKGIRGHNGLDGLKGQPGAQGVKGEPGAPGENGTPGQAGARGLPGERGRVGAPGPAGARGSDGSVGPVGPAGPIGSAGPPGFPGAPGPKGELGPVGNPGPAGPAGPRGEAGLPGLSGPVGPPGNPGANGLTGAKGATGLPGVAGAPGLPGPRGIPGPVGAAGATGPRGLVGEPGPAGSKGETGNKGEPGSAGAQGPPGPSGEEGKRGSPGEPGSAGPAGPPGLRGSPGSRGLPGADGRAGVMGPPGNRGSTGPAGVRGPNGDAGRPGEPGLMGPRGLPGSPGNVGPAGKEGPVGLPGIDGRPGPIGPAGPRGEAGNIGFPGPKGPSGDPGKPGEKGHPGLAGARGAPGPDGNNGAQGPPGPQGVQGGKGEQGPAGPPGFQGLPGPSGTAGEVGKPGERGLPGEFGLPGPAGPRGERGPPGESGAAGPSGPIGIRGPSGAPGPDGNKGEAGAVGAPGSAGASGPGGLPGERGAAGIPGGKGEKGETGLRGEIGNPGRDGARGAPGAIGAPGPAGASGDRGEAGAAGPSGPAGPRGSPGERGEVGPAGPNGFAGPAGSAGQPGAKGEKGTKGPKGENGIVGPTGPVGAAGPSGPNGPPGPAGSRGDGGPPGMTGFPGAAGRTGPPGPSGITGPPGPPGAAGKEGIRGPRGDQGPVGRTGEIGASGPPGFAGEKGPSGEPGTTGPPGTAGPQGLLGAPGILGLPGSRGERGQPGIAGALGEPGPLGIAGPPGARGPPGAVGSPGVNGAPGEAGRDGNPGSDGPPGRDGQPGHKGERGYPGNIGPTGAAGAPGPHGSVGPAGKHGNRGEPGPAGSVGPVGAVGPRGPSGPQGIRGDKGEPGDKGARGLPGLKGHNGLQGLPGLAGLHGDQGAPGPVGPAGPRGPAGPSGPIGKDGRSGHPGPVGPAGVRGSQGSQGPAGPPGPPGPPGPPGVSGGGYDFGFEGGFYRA

B1: … (peptide)
chain: RRRDEDESSDSSDSSDSSDSSDSSDSSDSSDSSDSSDSSDSSDSSDSSDSSDSSDSSDSSDSSDSSDDEG
modifications: derived from consensus mammalian sequence of DSPP; (8)..(68) [Asp Ser Ser] repeats (n varies from 2 to 20); (1)..(3) Insertion of 3 Arg at the N terminus of the peptide; (4)..(7) Casein kinase 1 recognition motif; (69)..(71) Casein kinase 2 recognition motif
Regarding B1, the “average number of phosphates per peptide” value in assay [1] (CK2, 1 hour) was 0.0148 (0.015) phosphates per peptide; in assay [1] (CK2, 4 hours), 0.435 (0.099) phosphates per peptide; in assay [1] (CK2, 24 hours) it was 4.4 phosphates per peptide and 4.354 (0.957) phosphates per peptide; in assay [2] (CK1 and CK2, 1 hour), 0.0191 (0.007) phosphates per peptide; in assay [2] (CK1 and CK2, 4 hours) it was 0.343 (0.124) phosphates per peptide; in assay [2] (CK1 and CK2, 24 hours), 3.5 phosphates per peptide and 3.4555 (1.755) phosphates per peptide. The “average number of phosphates per peptide” value in assay [4] (CK1, 1 hour) is 0.006 (0.002) phosphates per peptide; in assay [4] (CK1, 4 hours), 0.139 (0.103) phosphates per peptide; in assay [4] (CK1, 24 hours) it was 1.8 phosphates per peptide and 1.778 (1.196) phosphates per peptide. For the same molecule, the “share of all serines phosphorylated” value in assay [1] (CK2 group, 24 hours) is on record as 73%; in assay [2] (CK1+CK2 group, 24 hours), 58%; in assay [4] (CK1 group, 24 hours) it was 30%. Also, the “maximum number of phosphates incorporated onto the peptide” value in assay [3] is given as “four out of six possible”. Besides, the “collagen fibril mineralization pattern” value in assay [5] (15 μg/ml peptide, 16 hours, 37° C., pH 7.8, TEM) is “randomly oriented crystals formed throughout the grid”. The “mineral nucleation outside of the collagen fibrils” value in assay [5] (TEM, phosphorylated peptide experiments) is recorded as “suppressed mineral nucleation outside of the collagen fibrils”.
